From patent US20150010572A1 (SAMSUNG ELECTRONICS, published 2015)
Where a chain is given by its changes, count along the chain named.

T1: mutant Ang-2 protein, S417 substituted with alanine (FLAG-tagged at N-terminal) (human, UniProt O15123 281-496, limits assumed)
T1 chain: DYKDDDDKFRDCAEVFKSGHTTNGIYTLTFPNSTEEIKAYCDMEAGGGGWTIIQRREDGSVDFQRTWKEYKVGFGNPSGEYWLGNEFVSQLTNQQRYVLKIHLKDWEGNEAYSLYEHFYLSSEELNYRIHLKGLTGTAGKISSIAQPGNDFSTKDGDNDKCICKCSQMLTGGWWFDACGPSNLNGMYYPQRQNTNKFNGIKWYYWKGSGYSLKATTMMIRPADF

T2: mutant Ang-2 protein, Q418 substituted with alanine (FLAG-tagged at N-terminal) (human, UniProt O15123 281-496, limits assumed)
T2 construct: also called Q418A mutant protein; Ang-2 protein having Q418A mutation
T2 chain: T1 chain with A145S, Q146A

T3: mutant Ang-2 protein, N467 substituted with alanine (FLAG-tagged at N-terminal) (human, UniProt O15123 281-496, limits assumed)
T3 chain: T1 chain with A145S, N195A

T4: recombinant hAng-2 (C-His, R&D Systems) (human, UniProt O15123 19-496)
T4 construct: Bought protein; also called human Ang-2 protein; not shown: C-terminal His tag
T4 sequence: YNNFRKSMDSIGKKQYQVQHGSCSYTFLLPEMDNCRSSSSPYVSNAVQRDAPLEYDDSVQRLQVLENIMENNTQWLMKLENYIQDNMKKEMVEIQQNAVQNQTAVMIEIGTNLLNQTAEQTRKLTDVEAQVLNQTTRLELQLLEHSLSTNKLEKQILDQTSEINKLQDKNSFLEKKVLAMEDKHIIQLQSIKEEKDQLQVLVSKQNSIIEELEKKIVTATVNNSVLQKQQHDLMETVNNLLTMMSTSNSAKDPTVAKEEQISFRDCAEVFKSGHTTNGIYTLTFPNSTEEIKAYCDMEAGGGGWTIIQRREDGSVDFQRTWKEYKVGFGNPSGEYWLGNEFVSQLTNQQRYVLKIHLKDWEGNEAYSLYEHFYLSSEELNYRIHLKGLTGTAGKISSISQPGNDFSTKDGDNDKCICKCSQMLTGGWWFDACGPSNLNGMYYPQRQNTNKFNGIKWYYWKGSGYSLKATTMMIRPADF

T5: Ang-2 (R&D systems; 623-AN-025/CF) (human, UniProt O15123 19-496)
T5 sequence: T4 sequence

B1: SAIT-Ang-2-AB-m8B3 (antibody, V domains shown)
VH: DVQLQESGPGLVKPSQSLSLSCTVTGYSIASDYAWNWIRQFPGNKVEWMGYINYRGNTDYNPSLKSRSSINRDTSKNQFFLQLNSVTTGDTATYYCARGNFEGAMDYWGQGTSVTVSS
VL: TIVMTQTPKFLLVSAGDRITITCKASQSVSNDVAWYQQKPGQSPKLLIYYASNRYPGVPDRFTGSGYGTDFTFTISTVQAEDLAVYFCQQDYTSPWTFGGGTELEIK
notes: also called KCLRF-BP-00293
B2: SAIT-Ang-2-AB-m2E7 (antibody, V domains shown)
VH: DLQLQESGPGLVKPSQSLSLTCTVTGYSITSDYAWNWIRQFPGNKLEWMGYISYSGSTSYNPSLKSRISITRDTSKNQFFLQLNSLTTEDTATYYCARGDYGNYVGPMDYWGQGTSVTVSS
VL: B1 VL with T1S, I19V, Q37R, P56T, T93S, W96L, G100A, G101R, E103K, I106L
notes: also called KCLRF-BP-00294

Key:
[1] = biological target: mutant Ang-2 protein, A449 substituted with alanine (FLAG-tagged at N-terminal) (human) (UniProt O15123); experiment: ELISA, antibody coated, 250 ng FLAG-tagged mutant Ang-2, anti-FLAG-HRP, OD450 relative to native Ang-2
[2] = biological target: T1, mutant Ang-2 protein, S417 substituted …; experiment: as above
Procedure: (§1) Each well of a 96-well MaxiSorp™ flat-bottom plate (Nunc) was coated with 50 ul (microliter) of 1000 nM antibodies (Example 2). Then, the plate was washed five times with a 0.05% (v/v) Tween-20 containing PBS (PBST) and blocked with a 1% (v/v) BSA containing PBS at a room temperature for 2 hours. 250 ng of each mutant Ang-2 protein obtained by substituting S417, Q418, P419, N421, 1434, D448, A449, P452, Y460, N467, K468, or F469 residue of Ang-2 protein tagged with a FLAG sequence ([…], Sigma) at its N-terminal with alanine was added to each well of the plate, which was then allowed to react at a room temperature for 2 hours.
(§2) The plate was washed five times with a 0.05% (v/v) Tween-20 containing PBS, reacted with an anti-FLAG antibody (SIGMA) conjugated with HRP which was diluted in a 1% (v/v) BSA containing PBS at a ratio of 1:5,000 (v/v) at a room temperature for 1 hour, and washed five times with a 0.1% (v/v) Tween-20 containing PBS.
(§3) Finally, 50 ul of TMB substrates (Cell signaling) was added to each well of the plate to induce color development reaction at a room temperature for 3 min. and the reaction was ceased by the addition of 50 ul of Stop solution (Cell signaling) and then, OD450 values were measured on a plate reader (Molecular Devices). By comparing binding affinities with mutated Ang-2 to those of unmutated Ang-2, each epitope of Ang-2 antibodies was identified. The thus obtained measurement results of the binding affinities (%) of mutant Ang-2 against the binding affinity of the native Ang-2 are shown in the following Table 9.

[3] = biological target: T2, mutant Ang-2 protein, Q418 substituted …; experiment: as above
Procedure: as §1, §2, §3

[4] = biological target: T3, mutant Ang-2 protein, N467 substituted …; experiment: as above
Procedure: as §1, §2, §3

[5] = biological target: T4, recombinant hAng-2 (C-His, R&D Systems); experiment: SPR, BIAcore T100; hAng-2 (C-His) captured by anti-His antibody on CM5 chip, antibody flowed
Procedure: The binding affinities of the above 3 kinds of antibodies to human Ang-2 protein were measured by a SPR technology using a BIAcore T100 (GE Healthcare). The SPR technology uses refractive index change of light which passes a sensor chip according to the state of materials coated onto the sensor chip, and if an antigen or an antibody is flowed onto a chip coated with the antigen or antibody, it causes changes in refractive index due to their binding and Kd values are thus calculated from the measured values.
First, anti-His antibody was immobilized on a CM5 sensor chip (GE healthcare) up to 8,000 RU levels using a pH 5.0 acetate solution and an amine coupling kit (GE Healthcare). A recombinant hAng-2 (C-His, R&D Systems) protein was flowed onto the chip to be captured at 100 to 200 RU levels.

[6] = biological target: T5, Ang-2 (R&D systems; 623-AN-025/CF); experiment: cell-based or functional assay

Binder	% at RBD binding (mutant Ang-2 against native Ang-2) [1] [%]	% at RBD binding (mutant Ang-2 against native Ang-2) [2] [%]	% at RBD binding (mutant Ang-2 against native Ang-2) [3] [%]	% at RBD binding (mutant Ang-2 against native Ang-2) [4] [%]	Kd [5] [nM]	Ang-2-depedent Cell Adhesion Degree (%) [6] [%]
B1	88.5	95.4	4.1	95.1	0.0086	23.6
B2	90.9	98.3	0.6	96	30.6	28.1
